Laboratory results: patent publication US20180222996A1 (SCOTT AND WHITE HEALTHCARE SWH, published 2018)

Target: T1, Human CD123 on stably transfected CHO-K1 cells (CHO-CD123) (human, UniProt P26951 19-378)
T1 construct: whole, on cells; also called IL-3 receptor alpha subunit; cell surface CD123
Assay: flow cytometry on CHO-CD123 cells, 1 µg/ml
Experimental: Log phase growing monolayer cells were harvested with trypsin/EDTA solution (ATCC) and washed once with culture media and once with PBS containing 1% BSA. 1×10⁶ cells were resuspended in 200 μl staining solution (PBS, 1% BSA, 3% normal goat serum and indicated concentration of 12F1, 12F1scFv-Fc or CD123xCD3 BIf) at room temperature for 1 hour. Human IgG1 (Sigma) was used as a control. Cells were rinsed twice with PBS containing 1% BSA and incubated with PE-conjugated goat anti-human or anti-mouse antibody (Jackson Lab) at room temperature for 1 hour. Cells were thrice washed with PBS containing 1% BSA, resuspended in 500 μl of PBS and analyzed on a Beckman Coulter Cytomic FC 500 flow cytometry.
The abilities of 12F1scFv-Fc and CD123xCD3 BIf to bind cell surface CD123 were examined by flow cytometry using CHO-K1 and CHO-CD123. 12F1 murine monoclonal antibody was used as a positive control. […] The binding affinities were tested in cell-based ELISA with CHO-CD123 cells.

T1 sequence (P26951 19-378): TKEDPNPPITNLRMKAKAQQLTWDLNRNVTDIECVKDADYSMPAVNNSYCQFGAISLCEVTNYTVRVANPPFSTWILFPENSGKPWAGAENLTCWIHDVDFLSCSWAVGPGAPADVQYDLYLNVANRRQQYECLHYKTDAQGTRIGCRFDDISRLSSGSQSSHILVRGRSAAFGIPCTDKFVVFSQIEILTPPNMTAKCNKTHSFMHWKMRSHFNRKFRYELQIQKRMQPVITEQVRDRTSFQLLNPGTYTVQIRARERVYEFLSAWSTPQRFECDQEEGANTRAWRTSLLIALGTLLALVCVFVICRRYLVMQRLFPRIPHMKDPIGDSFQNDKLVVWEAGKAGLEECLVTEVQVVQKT

binding result: binds
B1: 12F1 murine anti-human CD123 monoclonal antibody (antibody, V domains shown)
VH: VQLQESGPGLVKPSQSLSLTCSVTDYSITSGYYWNWIRQFPGNKLEWMGYISYDGSNNYNPSLKNRISITRDTSKNQFFLKLSSVTTEDTATYYCSRGEGFYFDSWGQGTTLTVSS
VL: DIMMSQSPSSLAVSVGEKFTMTCKSSQSLFFGSTQKNYLAWYQQKPGQSPKLLIYWASTRESGVPDRFTGSGSGTDFTLAISSVMPEDLAVYYCQQYYNYPWTFGGGTKLEIK
notes: Murine monoclonal antibody from hybridoma
